Entries after “also recorded” stand apart in the source; their conditions may differ. One block for each molecule: values may come before it.
Experiments:
EpCAM = molecular target: T1, EpCAM (Homo sapiens, UniProt P16422); settings: other anti-EpCAM antibodies, comparison in the description; cited from earlier work
T1 sequence (P16422 24-314): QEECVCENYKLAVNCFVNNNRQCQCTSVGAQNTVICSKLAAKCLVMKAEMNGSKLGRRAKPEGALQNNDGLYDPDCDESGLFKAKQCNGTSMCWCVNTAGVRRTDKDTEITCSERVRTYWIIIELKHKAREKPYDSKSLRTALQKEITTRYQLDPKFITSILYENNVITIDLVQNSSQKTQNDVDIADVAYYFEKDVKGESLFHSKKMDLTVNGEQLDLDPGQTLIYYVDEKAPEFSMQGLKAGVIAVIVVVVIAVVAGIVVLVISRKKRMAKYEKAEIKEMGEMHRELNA

cancer cells = settings: comparison in the description; previous work; cited from earlier work
[1] = molecular target: T2, HGFRECD-c-Myc (extracellular domain of HGFR with c-Myc tag, expressed in HEK293T cells) (UniProt P08581 25-932); experiment: co-IP with anti-c-Myc from transfected HEK293T cells (FIG. 1G)
T2 construct: extracellular domain; also called HGFRECD-c-Myc-tag; not shown: c-Myc tag
T2 sequence (P08581 25-932): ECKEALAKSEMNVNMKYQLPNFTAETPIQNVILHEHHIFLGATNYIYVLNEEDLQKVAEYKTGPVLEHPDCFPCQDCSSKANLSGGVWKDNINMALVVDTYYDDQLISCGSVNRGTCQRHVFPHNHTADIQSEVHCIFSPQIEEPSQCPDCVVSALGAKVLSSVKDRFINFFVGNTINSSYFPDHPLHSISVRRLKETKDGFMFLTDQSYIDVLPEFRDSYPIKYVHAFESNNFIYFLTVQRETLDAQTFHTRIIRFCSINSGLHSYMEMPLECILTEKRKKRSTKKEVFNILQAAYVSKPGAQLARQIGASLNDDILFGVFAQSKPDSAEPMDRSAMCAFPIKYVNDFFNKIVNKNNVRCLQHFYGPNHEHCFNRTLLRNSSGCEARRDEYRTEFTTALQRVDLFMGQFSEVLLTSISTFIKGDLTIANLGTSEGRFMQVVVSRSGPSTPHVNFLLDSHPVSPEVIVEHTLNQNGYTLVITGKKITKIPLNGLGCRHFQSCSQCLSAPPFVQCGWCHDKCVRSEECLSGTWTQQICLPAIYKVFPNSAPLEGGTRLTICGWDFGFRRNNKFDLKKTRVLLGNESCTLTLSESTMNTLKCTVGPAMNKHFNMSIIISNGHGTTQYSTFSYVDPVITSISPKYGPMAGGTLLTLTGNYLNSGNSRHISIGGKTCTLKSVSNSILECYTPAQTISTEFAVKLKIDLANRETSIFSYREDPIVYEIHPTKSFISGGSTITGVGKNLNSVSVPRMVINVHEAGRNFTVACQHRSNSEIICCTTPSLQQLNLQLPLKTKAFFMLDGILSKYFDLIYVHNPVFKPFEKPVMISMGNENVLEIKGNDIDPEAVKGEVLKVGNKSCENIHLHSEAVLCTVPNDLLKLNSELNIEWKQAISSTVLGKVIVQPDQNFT

[2] = molecular target: T2, HGFRECD-c-Myc (extracellular domain of …); experiment: co-IP from transfected HEK293T cells (FIG. 1F)
HT29 cells = experiment: Apoptosis assay, annexin V-FITC/PI double labeling, HT29; assay type: cell-based, human; settings: 10 μg/ml 24 h, FIG. 7C
Description: (§1) FIGS. 7A to 7G. EpAb2-6 binds EpEX and induces apoptosis by F(ab′)2 and inhibits regulated intramembrane proteolysis (RIP) activation and HGFR signaling. (FIG. 7A) Binding affinity of IgG EpAb2-6 (mouse) and F(ab′)2 to EpEX-His (1 μg/ml) coated overnight was checked using ELISA (OD450). (FIG. 7B) HCT116 cells were treated with 100 μg/ml control IgG, Fc, or F(ab′)2 of EpAb2-6 for 24 h. The apoptotic and necrotic cells were quantified by fluorescein annexin V-FITC/PI double labeling. (FIG. 7C) HCT116 and HT29 cells were treated with 10 μg/ml control IgG, MT201, humanized EpAb2-6 (hEpAb2-6) or mouse hybridoma EbAb2-6 (mEpAb2-6) for 24 h. The apoptotic and necrotic cells were quantified by fluorescein annexin V-FITC/PI double labeling. (FIG. 7D) HCT116 cells were treated with 10 μg/ml control IgG, MT201, hEpAb2-6 or mEpAb2-6 for 16 h, followed by treatment with EpEX-His (50 nM) for 15 min. Levels of phosphorylated HGFR, AKT, and ERK, and (FIG. 7E) RIP proteins ADAM17 and presenilin 2 were examined by Western blotting. Anti-EpCAM antibody and crizotinib coordinately induces apoptosis in colon cancer cells. (FIG. 7F) HCT116 and HT29 cells were treated with 10 μg/ml NMIgG or EpAb2-6 and 4 μM HGFR inhibitor crizotinib for 24 h. The apoptotic and necrotic cells were quantified by fluorescein annexin V-FITC/PI double labeling. (FIG. 7G) HCT116 and HT29 cells were treated with 10 μg/ml NMIgG or EpAb2-6 and 10 μM HGFR inhibitor crizotinib. Cell invasion was assessed by a Transwell assay with matrigel after 24 h.
(§2) Cells were seeded and treated with 10 μg/ml mAb or inhibitor for 6 h; an unrelated mouse myeloma immunoglobulin used at appropriate dilution served as the IgG2a (Invitrogen #02-6200) isotype control. Apoptotic cells were detected using Annexin V-FITC and PI, and were analyzed using a flow cytometer (BD Immmunocytometry Systems). Early apoptosis was measured with the Annexin V-FITC Apoptosis Detection kit II (BD Pharmingen). Late apoptotic nuclei were detected with propidium iodide (PI) staining.

HCT116 cells = experiment: Apoptosis assay, annexin V-FITC/PI double labeling, HCT116; assay type: cell-based, human; settings: 10 μg/ml 24 h, FIG. 7C
Description: as §1, §2

HGFR signaling = experiment: Western blotting of phosphorylated HGFR, AKT, ERK, FAK in HCT116 cells; assay type: cell-based, human; settings: HCT116; 10 μg/ml 16 h, then EpEX-His 50 nM 15 min; FIG. 7D
Description: FIGS. 2A to 2K. EpEX promotes tumor progression via HGFR signaling. (FIG. 2A) WT or EpCAM knockout (KO) HCT116 and HT29 cells treated with HGF (0.5 nM) for 15 min. The phosphorylation of HGFR, AKT, and ERK was examined by Western blotting. (FIG. 2B) WT or KO HCT116 and HT29 cells were treated with HGF (0.5 nM) with 2% FBS for the indicated times. Cell growth was examined by the WST-1 assay. (FIG. 2C) Starved HCT116 cells were treated with HGFR inhibitor SU11274 (SU, 10 μM) for 1 h then treated with 50 nM of EpEX-His for 15 min. The levels of phosphorylated HGFR, EGFR, AKT, and ERK were examined by Western blotting. HCT116 and HT29 cells were treated with 50 nM EpEX and SU (10 μM). (FIG. 2D) Cell growth was examined by WST-1 assay after treatment for indicated time. (FIG. 2E) HCT116 cells were treated with shLuc or HGFR shRNA then treated with 50 nM of EpEX-His for 15 min. The levels of phosphorylated HGFR, EGFR, ERK, and AKT were examined in HGFR knockdown HCT116 cells by Western blotting. (FIG. 2F) The levels of phosphorylated ADAM17 and presenilin 2 were examined by Western blotting. (FIG. 2G) Active β-catenin nuclear translocation was assay by using Western blotting. (H) HCT116 cells were treated with shLuc or HGFR shRNA then treated with 50 nM of EpEX-His for indicated times. Cell growth was examined by the WST-1 assay. (FIG. 2I) HCT116 cells after shLuc and shHGFR treatment were treated with 50 nM of EpEX-His with 2% FBS for 7 days. Colony formation was examined by crystal violet staining.
FIGS. 6A to 6J. EpAb2-6 inhibits EpCAM and HGFR signaling and promotes active β-catenin and Snail protein degradation via activating GSK3β. (FIG. 6A) HCT116 cells were treated with 10 μg/ml control IgG (normal mouse IgG, NMIgG) or mouse EpAb2-6 (EpAb2-6) for 16 h, followed by treatment with EpEX-His (50 nM) for 15 min. Levels of phosphorylated HGFR, AKT, FAK, GSK3β, ERK, ADAM17, and presenilin 2 were examined by Western blotting. (FIG. 6B) HCT116 cells were treated with 10 μg/ml control IgG or mouse EpAb2-6 for 16 h, followed by treatment without or with HGF (0.5 nM) for 15 min. Levels of phosphorylated HGFR, AKT, and ERK were examined by Western blotting. HCT116 cells were treated with mouse EpAb2-6 (10 μg/ml) and HGF (0.5 nM). (FIG. 6C) Cell migration was examined by the wound healing assay at the indicated times. (FIG. 6D) Cell invasion was assessed by a Transwell assay with matrigel after 24 h. (FIG. 6E) HCT116 cells were treated with NMIgG or EpAb2-6 for 6 h and then immunoprecipitated with anti-EpCAM (IP: EpCAM) or anti-HGFR (IP: HGFR) antibodies, followed by Western blotting. (FIG. 6F) EpEX-His (2 μg/ml) co-treated with 1 μg IgG or EpAb2-6 was added to HGFR-Fc-coated (1 μg/ml) ELISA plates and detected by TMB colorimetric peroxidase assay. (FIG. 6G) EMT associated protein levels were detected by Western blotting in HCT116 cells treated with NMIgG or EpAb2-6 for 24 h. (FIG. 6H) Protein expression was analyzed by Western blotting in HCT116 cells after treatment with EpAb2-6 and 2 μM GSK3β inhibitor (BIO) for 24 h. Quantification of the normalized protein expression in the bottom panel. (FIG. 6I) HCT116 cells were treated with 10 μM MG132 and EpAb2-6 for 6 h before cell collection and subsequent Western blotting. (FIG. 6J) Stability of Snail protein in HCT116 cells treated with NMIgG or EpAb2-6. Cells were treated with cyclohexamide (CHX) 100 μg/ml at the indicated intervals and subjected to Western blotting.
FIGS. 7A to 7G. EpAb2-6 binds EpEX and induces apoptosis by F(ab′)2 and inhibits regulated intramembrane proteolysis (RIP) activation and HGFR signaling. (FIG. 7A) Binding affinity of IgG EpAb2-6 (mouse) and F(ab′)2 to EpEX-His (1 μg/ml) coated overnight was checked using ELISA (OD450). (FIG. 7B) HCT116 cells were treated with 100 μg/ml control IgG, Fc, or F(ab′)2 of EpAb2-6 for 24 h. The apoptotic and necrotic cells were quantified by fluorescein annexin V-FITC/PI double labeling. […]

ADAM17 and presenilin 2 = experiment: Western blotting of RIP proteins ADAM17 and presenilin 2 in HCT116 cells; assay type: cell-based, human; settings: 10 μg/ml 16 h, then EpEX-His 50 nM 15 min, FIG. 7E
Description: as §1, with “(FIG. 7G) HCT116 and HT29 cells were treated with 10 μg/ml NMIgG or EpAb2-6 and 10 μM HGFR inhibitor crizotinib.” left out
Whole cell extracts were prepared with RIPA buffer (50 mM Tris-HCl pH7.4, 1% NP-40, 0.5% Sodium deoxycholate, 0.1% SDS, 150 mM NaCl, 2 mM EDTA, 50 mM NaF). Protein concentrations of the cell lysates were determined by the Bradford assay. […]
Appropriate horseradish peroxidase-associated secondary antibodies (Millipore) were applied and the membranes were incubated at room temperature (RT) for 1 h. The protein bands were subsequently visualized with chemiluminescence reagents (Millipore) and detected on a BioSpectrum 600 Imaging system (UVP). The protein level was quantified from band intensity using Gel-Pro analyzer 3.1 (Media Cybernetics).

B1: edrecolomab: other antibody targeting only the EGF I domain of EpCAM (antibody, chains of the INN, looked up, V domains shown)
VH: QVQLQQSGAELVRPGTSVKVSCKASGYAFTNYLIEWVKQRPGQGLEWIGVINPGSGGTNYNEKFKGKATLTADKSSSTAYMQLSSLTSDDSAVYFCARDGPWFAYWGQGTLVTVSA
VL: NIVMTQSPKSMSMSVGERVTLTCKASENVVTYVSWYQQKPEQSPKLLIYGASNRYTGVPDRFTGSGSATDFTLTISSVQAEDLADYHCGQGYSYPYTFGGGTKLEIK
- EpCAM domains bound (EpCAM): target only the well-described EGF I domain of EpCAM; also recorded: binding to domain I only
- inducing apoptosis of cancer cells (cancer cells): failing to

B5: hEpAb2-6: humanized EpAb2-6 (antibody, V domains shown)
VH: VKLQESGPELKKPGETVKISCKASGYTFTDYSMHWVKQAPGKGLKWMGWINTETGEPTYADDFKGRFAFSLETSASTAYLQINNLKNEDTATYFCARTAVYWGQGTTVTVSS
VL: DIQMTQSPSSLSASLGERVSLTCRASQEISVSLSWLQQEPDGTIKRLIYATSTLDSGVPKRFSGSRSGSDYSLTISSLESEDFVDYYCLQYASYPWTFGGGTKLEIKRADAAPTVS
- apoptosis (HT29 cells): inducing apoptosis
- apoptosis (HCT116 cells): inducing apoptosis
- phosphorylation of HGFR, AKT, and ERK (HGFR signaling): inhibited phosphorylation of HGFR, AKT, and ERK
- levels of phosphorylated ADAM17 and presenilin 2 (ADAM17 and presenilin 2): decreased

B6: EpCAMΔEGFII-V5 (other)
chain: QEECVCENYKLAVNCFVNNNRQCQCTSVGAQNTVICSKLAAKSERVRTYWIIIELKHKAREKPYDSKSLRTALQKEITTRYQLDPKFITSILYENNVITIDLVQNSSQKTQNDVDIADVAYYFEKDVKGESLFHSKKMDLTVNGEQLDLDPGQTLIYYVDEKAPEFSMQGLKAGVIAVIVVVVIAVVAGIVVLVISRKKRMAKYEKAEIKEMGEMHRELNA
notes: also called EGF like-domain deletion mutant EpCAM-V5; not shown: V5 tag
- binding result [2]: binds

Other lines, results leading:

- binding result [1]: binds
B2: EpEXΔEGFII-His (ligand)
chain: QEECVCENYKLAVNCFVNNNRQCQCTSVGAQNTVICSKLAAKSERVRTYWIIIELKHKAREKPYDSKSLRTALQKEITTRYQLDPKFITSILYENNVITIDLVQNSSQKTQNDVDIADVAYYFEKDVKGESLFHSKKMDLTVNGEQLDLDPGQTLIYYVDEKAPEFSMQGLK
notes: EpEX lacking aa 66-135; also called EGF like-domain deletion mutant EpEX-His; soluble EpEX mutant protein; not shown: His tag

- binding result [2]: binds
B3: EpCAMΔEGFI-V5 (other)
chain: QEESKLAAKCLVMKAEMNGSKLGRRAKPEGALQNNDGLYDPDCDESGLFKAKQCNGTSMCWCVNTAGVRRTDKDTEITCSERVRTYWIIIELKHKAREKPYDSKSLRTALQKEITTRYQLDPKFITSILYENNVITIDLVQNSSQKTQNDVDIADVAYYFEKDVKGESLFHSKKMDLTVNGEQLDLDPGQTLIYYVDEKAPEFSMQGLKAGVIAVIVVVVIAVVAGIVVLVISRKKRMAKYEKAEIKEMGEMHRELNA
notes: as for B6

- binding result [1]: binds
B4: EpEXΔEGFI-His (ligand)
chain: QEESKLAAKCLVMKAEMNGSKLGRRAKPEGALQNNDGLYDPDCDESGLFKAKQCNGTSMCWCVNTAGVRRTDKDTEITCSERVRTYWIIIELKHKAREKPYDSKSLRTALQKEITTRYQLDPKFITSILYENNVITIDLVQNSSQKTQNDVDIADVAYYFEKDVKGESLFHSKKMDLTVNGEQLDLDPGQTLIYYVDEKAPEFSMQGLK
notes: EpEX lacking aa 27-59; also called EGF like-domain deletion mutant EpEX-His; soluble EpEX mutant protein; not shown: His tag

Source: patent US20250269018A1, “COMBINED CANCER THERAPY WITH AN EPITHELIAL CELL ADHESION MOLECULE (EPCAM) INHIBITOR AND A HEPATOCYTE GROWTH FACTOR RECEPTOR (HGFR) INHIBITOR” (ACADEMIA SINICA, priority 2021, published 2025)
